Test results reported in article PMC11911456, “Investigating synthetic lethality and PARP inhibitor resistance in pancreatic cancer through enantiomer differential activity” (Cell Death Discovery, 2025).

Molecular target: T1, human RAD51 protein (human, UniProt Q06609-1 1-339)
T1 construct: RAD51 recombinase, human, NP_002866, bought from Creative Biomart; This is the RAD51 of the ELISA; source: bought: Creative Biomart
T1 sequence (looked up): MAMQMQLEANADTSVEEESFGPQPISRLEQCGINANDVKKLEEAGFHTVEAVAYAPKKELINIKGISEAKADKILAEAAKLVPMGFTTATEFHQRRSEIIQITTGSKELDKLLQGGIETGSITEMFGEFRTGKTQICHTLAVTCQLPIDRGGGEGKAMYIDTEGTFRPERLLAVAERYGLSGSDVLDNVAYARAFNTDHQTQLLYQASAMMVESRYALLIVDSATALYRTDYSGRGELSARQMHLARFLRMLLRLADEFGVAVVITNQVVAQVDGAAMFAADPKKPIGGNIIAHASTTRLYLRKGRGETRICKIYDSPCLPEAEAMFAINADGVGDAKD
Assay: ELISA; competitive ELISA; BRC4-biotinylated peptide coated on 384-well plates, blocked with 1% BSA/PBS-T, overnight hybridisation with human RAD51; small-molecule compounds added 0.01-100 uM at constant 1% DMSO; detection with anti-RAD51 and HRP-secondary antibodies
Settings: both partners purified

B1: BRC4-biotinylated peptide (peptide)
peptide: KEPTLLGFHTASGKKVKIAKESLDKVKNLFDEKEQ
modifications: biotin on the N-terminus
notes: BRC4 repeat of BRCA2; holds the FxxA motif (BRCA2 residues 1524-1527) and the LFDE motif (BRCA2 residues 1545-1548) as numbered in the introduction; also called biotinylated BRC4 peptide; BRC4 peptide; source: bought: Life Technologies
  binding result: binds
